Measured values published in patent US20200164068A1, “MODULATORS OF TUMOR IMMUNE RESISTANCE FOR THE TREATMENT OF CANCER” (DEUTSCHES KREBSFORSCHUNGSZENTRUM STIFTUNG DES ÖFFENTLICHEN …, priority 2016, published 2020).

How the values were obtained:
MCF7 cells = experiment: Chromium-release cytotoxicity assay, MCF7 cells and survivin-specific CTL; assay type: cell-based; conditions: MCF7 cells pre-treated with 250 ng/ml PTX for 1 h, compared to CCR9 gene knockdown
Description: (§1) Tumor cells were transfected with the described siRNAs using RNAiMAX or with pCMV6-AC-His-CCR9 encoding vector and empty control vector (OriGene, Rockville, USA) using TransIT-LT1. 72 h later, transfected cells were harvested for chromium-release cytotoxicity assay as detailed in Supplementary Methods. For CCR9 blockade using pertussis toxin (PTX), […] tumor cells were incubated with 250 ng/ml of PTX (Sigma Aldrich) for 1 h at 37° C. before labeling with radioactive chromium.

CCR9+ tumor cells = experiment: Transwell migration assay toward CCL25; assay type: cell-based
CCL25 = experiment: ELISA of CCL25 levels in tumor cell lysates; assay type: cell-based; conditions: stable knockdown
M579-A2 tumor cells = experiment: Chromium-release cytotoxicity assay, M579-A2 melanoma cells and TIL 209; assay type: cell-based, human; conditions: stable CCR9 knockdown M579-A2 versus shControl
Text: MCF7, MDA-MB-231 (breast cancer), and PANC-1 pancreatic cancer cells were acquired from American Type Cell Culture (Wesel, Germany). MCF7luc cells were generated by electroporation with pEGFP-Luc plasmid and expansion of sorted GFP+ clones in selection medium containing […] G418 (Gibco, UK). M579-A2 melanoma culture was established from a patient and stably transfected with HLA-A2 expression construct as described before (Machlenkin et al, 2008). For stable CCR9 knockdown, lentiviral particles were produced using the pRSI9-U6-TagRFP-2APuro lentiviral expression vector (Cellecta) that contained either the CCR9-specific shRNA hairpin ([…]: SEQ ID NO. 5) or control nontargeting shRNA. Viruses were packaged using the psPAX2 and pMD2.G packaging plasmids (Addgene), and tumor cell lines were transduced with the viral particles as per the manufacturer's protocol.
as §1

M579-A2 tumors = experiment: In vivo M579-A2 tumor growth in NSG mice with adoptive TIL 209 transfer
Description: Appropriate approval for animal work was obtained from the regulatory authorities (Regierungsprasidium, Karlsruhe) before the start of the experiment. Four- to six-week-old female NSG mice were ordered from the Animal Core Facility at DKFZ, Heidelberg. Mice were subcutaneously injected with 5×10^5 cells (in 100 μl of matrigel per injection) of each CCR9-M579-A2 (transduced with CCR9-specific shRNA) and CCR9+M579-A2 (transduced with non-targeting control shRNA) cell lines in the left and the right flank, respectively. Following this, at Day 2 and Day 9, 7 out of the 10 tumor-bearing mice received adoptive transfer of expanded TIL 209 cells intravenously into the tail vein (1×10^7 cells/100 μl PBS/mouse). The remaining three mice were injected with PBS alone to assess tumor growth in the absence of adoptive TIL transfer. Tumor measurements were performed using a digital caliper (Carl Roth) at the indicated time points, and tumor volume was measured using the formula: volume=height*width*width*(n/3).
Differences between test and control groups were analyzed by two-sided Student's t-test. In all statistical tests, a P-value <0.05 was considered significant. Statistical difference between the tumor growth curves in vivo was assessed using the unpaired one-sided Mann-Whitney U-test.

HLA-A2 = experiment: Surface HLA-A2 expression on M579-A2 cells; assay type: cell-based, human; conditions: M579-A2 upon CCR9 knockdown

Molecule	Tumor lysis by antigen-specific T cells (MCF7 cells)	Migration of CCR9+ tumor cells toward CCL25 (CCR9+ tumor cells)	CCL25 production by MCF7 breast cancer cells (CCL25)	Immune lysis by tumor-infiltrating lymphocytes (TIL 209) (M579-A2 tumor cells)	Tumor growth kinetic without T cell transfer (M579-A2 tumors; CCR9- versus CCR9+ M579-A2 tumors in NSG mice given PBS alone)	Tumor growth in response to adoptive T cell transfer (M579-A2 tumors; CCR9- versus CCR9+ M579-A2 tumors s.c. in NSG mice, TIL 209 i.v. at Day 2 and Day 9)	Surface HLA-A2 expression (HLA-A2)
pertussis toxin	did not elicit elevated tumor lysis	inhibited the migration					
CCR9-specific shRNA (nucleic acid) DNA: ACCGGGCCAGTGGAGGTCTTTGTTCTGTTAATATTCATAGCAGAACAAGGACCTTCACTGGCTTTT			did not affect	more susceptible to immune lysis	No difference	grew significantly slower	no significant difference
